Reference: publication PMC4828312

What was measured:
[1] = molecular target: Assembled microtubules (containing ~25% of TUBB3) (porcine); assay: SPR
[2] = molecular target: Human recombinant tubulin β-3 (TUBB3) (human) (UniProt Q13509); assay: SPR
Sequence of Human recombinant tubulin β-3 (TUBB3) (human) (Q13509 whole entry): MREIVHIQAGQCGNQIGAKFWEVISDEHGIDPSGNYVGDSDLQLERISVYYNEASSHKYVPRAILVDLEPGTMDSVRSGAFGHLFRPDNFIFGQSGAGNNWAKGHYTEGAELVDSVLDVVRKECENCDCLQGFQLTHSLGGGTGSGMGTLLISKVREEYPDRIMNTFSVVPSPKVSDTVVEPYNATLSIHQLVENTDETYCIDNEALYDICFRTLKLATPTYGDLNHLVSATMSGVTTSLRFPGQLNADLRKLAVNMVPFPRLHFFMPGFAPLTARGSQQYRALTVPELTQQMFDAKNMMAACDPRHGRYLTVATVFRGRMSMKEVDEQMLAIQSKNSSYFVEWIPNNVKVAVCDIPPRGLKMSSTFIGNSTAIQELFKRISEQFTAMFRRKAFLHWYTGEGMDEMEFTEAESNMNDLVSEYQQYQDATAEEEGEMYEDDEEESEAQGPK

Substance	Kd [1] [nM]	Kd [2] [nM]
HIV-1 envelope glycoprotein gp120, strain ADA (natural protein)	12	10.3
HIV-1 envelope glycoprotein gp120, strain IIIB (from UniProt P04578 33-511) (natural protein)	10	–
HIV-1 envelope glycoprotein gp120, strain MN (from UniProt P05877 32-513) (natural protein)	62.7	–
